Substrate in the series: O=[N+]([O-])c1ccc(OP(=O)(O)O)cc1
Briefly: purified protein.

These results are taken from paper PMC2915760.

B1: Lyp (lymphoid-specific protein tyrosine phosphatase, PTPN22), wild-type (Homo sapiens) (protein)
chain: MDQREILQKFLDEAQSKKITKEEFANEFLKLKRQSTKYKADKTYPTTVAEKPKNIKKNRYKDILPYDYSRVELSLITSDEDSSYINANFIKGVYGPKAYIATQGPLSTTLLDFWRMIWEYSVLIIVMACMEYEMGKKKCERYWAEPGEMQLEFGPFSVSCEAEKRKSDYIIRTLKVKFNSETRTIYQFHYKNWPDHDVPSSIDPILELIWDVRCYQEDDSVPICIHCSAGCGRTGVICAIDYTWMLLKDGIIPENFSVFSLIREMRTQRPSLVQTQEQYELVYNAVLELFKRQM
One may read the Km as the substrate concentration at which the rate is half of its maximum. Consider B1, for which the Km is 4.86 ± 0.39 mM.
